In patent publication EP1482987B1 (Bracco Suisse SA, dated 2014):
One block for each binder: values may come before it. *1 amine or outer side, *2 acyl side, *3 side chain or, on linkers, in order; H or OH if unused. Bridges are numbered along the chain shown (N, C = ends). Roman numbers before positions name the chains, in order. Primed or numbered codes have the meaning given here. Where no end group is shown, it is not given here. Side-chain parts run from the residue outwards. The star is where a group is joined. ivDde′ = (4,4-dimethyl-2,6-dioxocyclohex-1-ylidene)-3-methylbutyl protecting group, CC(C)CC(=C1C(=O)CC(C)(C)CC1=O)*; Biotin = O=C1N[C@H]2[C@H](CS[C@H]2CCCCC(=O)*)N1; Glutaryl = O=C(CCCC(=O)[*:2])[*:1]; AEEA = NCCOCCOCC(=O)O

Assays:
Soluble KDR receptor = Soluble KDR receptor (UniProt P35968 20-764, limits assumed); test: SPR (Biacore 3000), soluble KDR on CM5
[1] = target: KDR on human umbilical vein endothelial cells (HUVECs) (human, UniProt P35968 20-1356); test: cell-based or functional assay
[2] = target: KDR (full-length receptor) expressed on transiently transfected 293H cells (human) (UniProt P35968); test: competition with 300 pM 125I-VEGF on KDR-transfected 293H cells; peptide 30 µM
[3] = target: KDR (full-length receptor) expressed on transiently transfected 293H cells (human) (UniProt P35968); test: competition with 300 pM 125I-VEGF on KDR-transfected 293H cells; peptide 0.3 µM

KDR (full-length receptor) expressed on transiently transfected 293H cells (human), sequence (P35968 20-1356): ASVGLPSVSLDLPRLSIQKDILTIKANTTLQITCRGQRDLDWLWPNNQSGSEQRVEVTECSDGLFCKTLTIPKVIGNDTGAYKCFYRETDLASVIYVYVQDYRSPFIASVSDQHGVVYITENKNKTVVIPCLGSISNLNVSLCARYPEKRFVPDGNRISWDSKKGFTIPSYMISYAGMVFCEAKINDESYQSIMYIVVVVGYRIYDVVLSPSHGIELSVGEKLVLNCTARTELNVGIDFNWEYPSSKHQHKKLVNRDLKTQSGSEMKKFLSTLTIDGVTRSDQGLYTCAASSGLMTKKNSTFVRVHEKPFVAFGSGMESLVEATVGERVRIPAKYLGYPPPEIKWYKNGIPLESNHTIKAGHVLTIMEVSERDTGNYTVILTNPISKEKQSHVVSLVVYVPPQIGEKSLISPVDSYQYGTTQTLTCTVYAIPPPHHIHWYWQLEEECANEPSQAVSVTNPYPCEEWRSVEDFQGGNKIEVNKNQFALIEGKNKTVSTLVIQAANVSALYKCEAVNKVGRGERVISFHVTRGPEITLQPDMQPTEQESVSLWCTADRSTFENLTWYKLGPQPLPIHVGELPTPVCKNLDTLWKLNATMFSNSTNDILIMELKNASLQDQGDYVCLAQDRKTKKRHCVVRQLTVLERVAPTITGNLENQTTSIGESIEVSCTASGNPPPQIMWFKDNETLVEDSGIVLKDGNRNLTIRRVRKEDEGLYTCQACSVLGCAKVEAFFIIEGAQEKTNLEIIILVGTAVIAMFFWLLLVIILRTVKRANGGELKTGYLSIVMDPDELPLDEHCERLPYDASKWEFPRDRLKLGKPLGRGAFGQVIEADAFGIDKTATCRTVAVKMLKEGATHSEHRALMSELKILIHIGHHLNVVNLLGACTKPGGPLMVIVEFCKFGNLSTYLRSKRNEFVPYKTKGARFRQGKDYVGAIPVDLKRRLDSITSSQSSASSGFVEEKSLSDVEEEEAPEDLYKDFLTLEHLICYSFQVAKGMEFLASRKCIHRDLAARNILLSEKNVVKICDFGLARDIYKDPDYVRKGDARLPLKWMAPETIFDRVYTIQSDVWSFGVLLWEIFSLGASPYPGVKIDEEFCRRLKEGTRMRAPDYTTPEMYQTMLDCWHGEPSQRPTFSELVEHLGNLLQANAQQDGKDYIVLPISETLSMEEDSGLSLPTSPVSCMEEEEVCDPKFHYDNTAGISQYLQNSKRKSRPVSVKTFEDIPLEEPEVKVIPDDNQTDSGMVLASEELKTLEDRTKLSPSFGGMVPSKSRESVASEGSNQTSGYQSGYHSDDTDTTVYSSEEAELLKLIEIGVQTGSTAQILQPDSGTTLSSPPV
KDR on human umbilical vein endothelial cells (HUVECs), sequence (P35968 20-1356): as above
Soluble KDR receptor, sequence (P35968 20-764 limits assumed): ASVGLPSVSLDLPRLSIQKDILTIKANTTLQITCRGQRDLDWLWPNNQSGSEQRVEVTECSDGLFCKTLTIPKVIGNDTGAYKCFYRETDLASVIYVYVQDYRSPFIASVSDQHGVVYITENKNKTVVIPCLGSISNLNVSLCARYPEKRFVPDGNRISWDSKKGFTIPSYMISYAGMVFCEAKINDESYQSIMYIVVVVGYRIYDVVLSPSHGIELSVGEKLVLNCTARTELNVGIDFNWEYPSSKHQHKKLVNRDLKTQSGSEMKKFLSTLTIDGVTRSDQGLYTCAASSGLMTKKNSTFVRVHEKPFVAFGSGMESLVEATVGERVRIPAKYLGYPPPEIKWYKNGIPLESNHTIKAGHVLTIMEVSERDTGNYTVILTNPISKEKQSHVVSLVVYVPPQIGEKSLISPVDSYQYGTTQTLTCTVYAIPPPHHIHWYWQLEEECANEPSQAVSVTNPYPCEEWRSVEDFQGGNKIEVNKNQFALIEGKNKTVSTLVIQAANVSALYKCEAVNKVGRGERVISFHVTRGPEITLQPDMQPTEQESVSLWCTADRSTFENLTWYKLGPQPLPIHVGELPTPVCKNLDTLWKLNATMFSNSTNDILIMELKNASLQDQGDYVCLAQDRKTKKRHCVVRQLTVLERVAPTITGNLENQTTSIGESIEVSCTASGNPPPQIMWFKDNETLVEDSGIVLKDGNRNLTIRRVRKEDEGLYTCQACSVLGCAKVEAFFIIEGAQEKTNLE

B3: P3-D (peptide)
peptide: Ac-AGWLECYAEFGHCYNFGTGGGK-NH2
modifications: disulfide 6-13
SMILES: CC(=O)N[C@@H](C)C(=O)NCC(=O)N[C@@H](Cc1c[nH]c2ccccc12)C(=O)N[C@@H](CC(C)C)C(=O)N[C@@H](CCC(=O)O)C(=O)N[C@H]1CSSC[C@@H](C(=O)N[C@@H](Cc2ccc(O)cc2)C(=O)N[C@@H](CC(N)=O)C(=O)N[C@@H](Cc2ccccc2)C(=O)NCC(=O)N[C@H](C(=O)NCC(=O)NCC(=O)NCC(=O)N[C@@H](CCCCN)C(N)=O)[C@@H](C)O)NC(=O)[C@H](Cc2c[nH]cn2)NC(=O)CNC(=O)[C@H](Cc2ccccc2)NC(=O)[C@H](CCC(=O)O)NC(=O)[C@H](C)NC(=O)[C@H](Cc2ccc(O)cc2)NC1=O
inhibition of VEGF-induced KDR phosphorylation [1]: ≥ 50 % inhibition at 10 µM

B4: D1 (peptide)
peptide 1: AGPTWCEDDWYYCWLFGTGGGK
peptide 2: VCWEDSWGGEVCFRYDPGGGK
modifications: linker (positions not given here) via Glutaryl; disulfide I:6-I:13, II:2-II:12; also: two chains linked by a glutaryl linker, exact groups only in a drawing
IC50, receptor activation assay [1]: 0.5 to 1 nM

Binder: GDSRVCWEDSWGGEVCFRYDP [P6]
% inhibition of 125I-VEGF binding [2]: 96.3%
% inhibition of 125I-VEGF binding [3]: 52.3%

B6: P7-E (peptide)
peptide: Ac-GDWWECK(ivDde′)REEYRNTTWCAWADPGGGK-NH2
modifications: disulfide 6-17
SMILES: CC(=O)NCC(=O)N[C@@H](CC(=O)O)C(=O)N[C@@H](Cc1c[nH]c2ccccc12)C(=O)N[C@@H](Cc1c[nH]c2ccccc12)C(=O)N[C@@H](CCC(=O)O)C(=O)N[C@H]1CSSC[C@@H](C(=O)N[C@@H](C)C(=O)N[C@@H](Cc2c[nH]c3ccccc23)C(=O)N[C@@H](C)C(=O)N[C@@H](CC(=O)O)C(=O)N2CCC[C@H]2C(=O)NCC(=O)NCC(=O)NCC(=O)N[C@@H](CCCCN)C(N)=O)NC(=O)[C@H](Cc2c[nH]c3ccccc23)NC(=O)[C@H]([C@@H](C)O)NC(=O)[C@H]([C@@H](C)O)NC(=O)[C@H](CC(N)=O)NC(=O)[C@H](CCCNC(=N)N)NC(=O)[C@H](Cc2ccc(O)cc2)NC(=O)[C@H](CCC(=O)O)NC(=O)[C@H](CCC(=O)O)NC(=O)[C@H](CCCNC(=N)N)NC(=O)[C@H](CCCCNC(CC(C)C)=C2C(=O)CC(C)(C)CC2=O)NC1=O
inhibition of VEGF-induced KDR phosphorylation [1]: ≥ 50 % inhibition at 10 µM

Further lines, results first:

fold increase in affinity over P10 (Soluble KDR receptor): > 560 fold
B1: Head-to-head dimer (P9/P10 heterodimer) (peptide)
peptide 1: AQEPEGYAYWEVITLYHEEDGDGG
peptide 2: AQAFPRFGGDDYWIQQYLRYTDGG
modifications: bridge I:N-II:N; not fully specified (N-terminus); also: head-to-head heterodimer, N-termini joined by oxime
notes: also called H-H dimer

inhibition of VEGF-induced KDR phosphorylation [1]: ≥ 50 % inhibition at 10 µM
B2: P8-D (peptide)
peptide: Ac-GDPDTCTMWGDSGRWYCFPADPGGGK-NH2
modifications: disulfide 6-17
SMILES: CSCC[C@@H]1NC(=O)[C@H]([C@@H](C)O)NC(=O)[C@@H](NC(=O)[C@@H](NC(=O)[C@H](CC(=O)O)NC(=O)[C@@H]2CCCN2C(=O)[C@H](CC(=O)O)NC(=O)CNC(C)=O)[C@@H](C)O)CSSC[C@@H](C(=O)N[C@@H](Cc2ccccc2)C(=O)N2CCC[C@H]2C(=O)N[C@@H](C)C(=O)N[C@@H](CC(=O)O)C(=O)N2CCC[C@H]2C(=O)NCC(=O)NCC(=O)NCC(=O)N[C@@H](CCCCN)C(N)=O)NC(=O)[C@H](Cc2ccc(O)cc2)NC(=O)[C@H](Cc2c[nH]c3ccccc23)NC(=O)[C@H](CCCNC(=N)N)NC(=O)CNC(=O)[C@H](CO)NC(=O)[C@H](CC(=O)O)NC(=O)CNC(=O)[C@H](Cc2c[nH]c3ccccc23)NC1=O

inhibition of VEGF-induced KDR phosphorylation [1]: ≥ 50 % inhibition at 10 µM
Binder: Ac-AQGDYVYWEIIELTGATDHTPPGGGK-NH2 [P11-D]

IC50, receptor activation assay [1]: 100 nM
% inhibition of 125I-VEGF binding [2]: 104%
% inhibition of 125I-VEGF binding [3]: 81%
B5: P12-XB (peptide)
peptide: Ac-AGPTWCEDDWYYCWLFGTGGGK([AEEA-AEEA-Biotin])-NH2
modifications: disulfide 6-13
SMILES: CC(=O)N[C@@H](C)C(=O)NCC(=O)N1CCC[C@H]1C(=O)N[C@H](C(=O)N[C@@H](Cc1c[nH]c2ccccc12)C(=O)N[C@H]1CSSC[C@@H](C(=O)N[C@@H](Cc2c[nH]c3ccccc23)C(=O)N[C@@H](CC(C)C)C(=O)N[C@@H](Cc2ccccc2)C(=O)NCC(=O)N[C@H](C(=O)NCC(=O)NCC(=O)NCC(=O)N[C@@H](CCCCNC(=O)COCCOCCNC(=O)COCCOCCNC(=O)CCCC[C@@H]2SC[C@@H]3NC(=O)N[C@@H]32)C(N)=O)[C@@H](C)O)NC(=O)[C@H](Cc2ccc(O)cc2)NC(=O)[C@H](Cc2ccc(O)cc2)NC(=O)[C@H](Cc2c[nH]c3ccccc23)NC(=O)[C@H](CC(=O)O)NC(=O)[C@H](CC(=O)O)NC(=O)[C@H](CCC(=O)O)NC1=O)[C@@H](C)O
